Laboratory results: the DeepSol protein solubility set

test: soluble on expression in E. coli; label from the status in PepcDB or PDB records

Q: Which “soluble on expression in E. coli” value does the source give for “MPSSPAERYAQALASGQFMPDEAQAQAVQELERVWQELLSRYKASKKAFRRFRRQTSPKGVYMWGGVGRGKTWLMDQFYDSIPFRRKTRMHFHHFMQHVHRELNKLSGQRNPLDLVADQIYKDAVIICFDEFFVSNVTDAMILSDLFQKLFNRGVTLVATSNIAPDGLYKNGIHRDRFLPTIELVQKNCTILNVDAGVDYRLRVLKQAQLFKHPLTDDAKIWMSQRFSAITRSQIVSQQPITINNRVVETLGHTEDVLWCEFSELCLKPRSPADFIEIANIYNTVLVSNVPHLTDYLSEGTRRFIYLVDEFYDRGVKLLLTSQDSIIEIYEGEKLAFEIERTRSRLLEMQSDEYLHSLEHHHHHH” here?
A: Its value is “soluble”.

Q: For “MAVTEVKLNAPLAVGVWAKMLNTETSKALPIAPLMGKSKNSIIQVLDMLEKSAGDAVTSGLRVQLMGDGVSEGQTLEGNEEALQFMNEKVHINELTHAVRIKYEGSIDQQRIPFSLRQEAKDGLVDWYADRLSLMFFIQAAGYTAPWMQFEGRTITLKPVHYGFNAPSEPSKLRVIRPAKKKTDEELTKEDVFTLDLIDQAVERAKLANPRLRPVRVDGKSAYVMYLHPIQVTQLRTNTKSGQWLDITKAAYDGSGAKNPIFNGSLGMYNGVILREAEHVPNGVNSKTQEPVPSVRRAVLLGAQSIIMAYGRIGNGATGSNEENSETRYKLVEELFDYQREFGLAAKTIIGMKKSRYTLPHSDQGGQDFGTIVIPSFAEAS”, which “soluble on expression in E. coli” value is on record?
A: Its value is “not soluble”.

Q: With “MGSDKIHHHHHHMSTTASIENIDYWRHPSLSGIELSQAEFTHFSFDKHVHLDYHLGVVTQGAQQFVNKGSYYQLGQHSLSTLNPDDTHDGQSRDAEGYRVKVMSIPVEYMNEVSQELGLKEHFFSAPMVDDALLYHYFIHLHELLIQGQVTALASESHLFNFIQLLLRRHPSGILKCNSPQGLSTLQLGLVKQRMHDEPWHNTQLETLAGEVNLSKFQFLRQFKQATGMTPHAYLKRVRLELAKKSLCHGTLVADVAQQLGFFDQSHLNKAFKQAFLLSPVQFQRRML” as the sequence, how does the “soluble on expression in E. coli” value read?
A: The value was “not soluble”.

Q: With “PLGSEEEEEDAGLVAEAEAVAAGWMLDFLCLSLCRAFRDGRSEDFRRTRNSAEAIIHGLSSLTACQLRTIYICQFLTRIAAGKTLDAQFENDERITPLESALMIWGSIEKEHDKLHEEIQNLIKIQAIAVCMENGNFKEAEEVFERIFGDPNSHMPFKSKLLMIISQKDTFHSFFQHFSYNHMMEKIKSYVNYVLSEKSSTFLMKAAAKVVESKR” as the sequence, how does the “soluble on expression in E. coli” value read?
A: Its value is “soluble”.

Q: Which “soluble on expression in E. coli” value does the source give for “MHHHHHHMGLNTAIATRVNGTPPPEVPIADIELGSLDFWALDDDVRDGAFATLRREAPISFWPTIELPGFVAGNGHWALTKYDDVFYASRHPDIFSSYPNITINDQTPELAEYFGSMIVLDDPRHQRLRSIVSRAFTPKVVARIEAAVRDRAHRLVSSMIANNPDRQADLVSELAGPLPLQIICDMMGIPKADHQRIFHWTNVILGFGDPDLATDFDEFMQVSADIGAYATALAEDRRVNHHDDLTSSLVEAEVDGERLSSREIASFFILLVVAGNETTRNAITHGVLALSRYPEQRDRWWSDFDGLAPTAVEEIVRWASPVVYMRRTLTQDIELRGTKMAAGDKVSLWYCSANRDESKFADPWTFDLARNPNPHLGFGGGGAHFCLGANLARREIRVAFDELRRQMPDVVATEEPARLLSQFIHGIKTLPVTWS” here?
A: Its value is “soluble”.

Q: For “SYTLPSLPYAYDALEPHFDKQTMEIHHTKHHQTYVNNANAALESLPEFANLPVEELITKLDQLPADKKTVLRNNAGGHANHSLFWKGLKKGTTLQGDLKAAIERDFGSVDNFKAEFEKAAASRFGSGWAWLVLKGDKLAVVSTANHDSPLMGEAISGASGFPIMGLDVWEHAYYLKFQNRRPDYIKEFWNVVNWDEAAARFAAKK”, which “soluble on expression in E. coli” value is on record?
A: The value was “soluble”.

Q: With “MGSDKIHHHHHHMIRVIDCTLREGCQARQCSFDSAQSVQLAREIAALGVDMIECGHPRISADERERVRAVVAAVSTPVLAHARARREDIDAVLETGAQWVGLFASINAISLETKFKGMNREEVLELFHDAIRYARERGLRVRATVEDAARTSVSDLVSMIATARDAGADRICFADSVGILLPDETFDVLSLLRHEFPDVVFEYHVHNDRGLALGNTLAAIQAGVQWHSASCNGIGERAGITDTFQLLTLLHTKFAADRFNLKNVLAVSELVEAHSRIKRSPMHPVVGENAFVHVARLHQLAMQENQDAYSAFDPELINGRVSLQRYTPMHRQSLFLTPFEKSASELKYHRHGPGKRFVMLDRRLLDGSPFYFIARQFHDVGDGGPGHVDSHVHNCDSVFLFLGSDEDYRGLEVEVLLGGQLRRLQSPASVFIPAGVEHSYRYLGGSGTYINFVHKGDYHESLLEITQ” as the sequence, how does the “soluble on expression in E. coli” value read?
A: The value was “not soluble”.

Q: With “MGHHHHHHSHMQNEKETMQSLNDRLASYLDRVRSLETENRRLESKIREHLEKKGPQVRDWSHYFKIIEDLRAQIFANTVDNARIVLQIDNARLAADDFRVKYETELAMRQSVENDIHGLRKVIDDTNITRLQLETEIEALKEELLFMKKNHEEEVKGLQAQIASSGLTVEVDAPKSQDLAKIMADIRAQYDELARKNREELDKYWSQQIEESTTVVTTQSAEVGAAETTLTELRRTVQSLEIDLDSMRNLKASLENSLREVEARYALQMEQLNGILLHLESELAQTRAEGQRQAQEYEALLNIKVKLEAEIATYRRLLEDGEDFNLGDALDSSNSMQTIQKTTTRRIVDGKVVSETNDTKVLRH” as the sequence, how does the “soluble on expression in E. coli” value read?
A: The value was “soluble”.

Q: With “MIFLIVLKYPVSLNVIRKLKTGDVVYYTGKIVVMDRSVVDILEKYERYEGTKLYDLTGEIVVLGTFRKNKLQFQEMTEELLERLFLLGVNGVILERVRPFSATKRFSRVLFEPLEEIRGTRRVIYKTPDSKKLEELEVEKLVLRVVQDSSGKVYSKV” as the sequence, how does the “soluble on expression in E. coli” value read?
A: Its value is “not soluble”.

Q: For “MSLKFFPTRTLLCLCIAAPCLPAIAQNDPIELPDIGTVAGSTLTIDQELIYGDAYMRMLRNNQPVINDPVLNEYIDNLGHRLVASANDVKTPFTFFMIRDRNINAFAFFGGYVALHSGLFLHAQSESELASVMAHEIAHVTQRHLARSMEEQARRSPATIAALAGSLLLAIAAPEAGIAAINATMAGSIQGQINYTRSNEKEADRFGIATLAKAGFDANAMPQFFTRLADEYRYASKPPPMLLTHPLPEDRITDSRERARQYPPLKLAPHLDYHLARARIIARYAGIDADAALDWFARSEKKIDATLQPSIQYGKALVYLDLKQFDKAEPLLTQLVKEQPDNHFYLDAISDLYIELKQADKAQSLLEKALKQTPNNSVLTINYANVLLKQDKFTDAIRILQRYTHDNPNDINGWQLLSEANSRLGNSAEDLAARGEIMALQANWNKAIQFYTQASQLVELGSLAQARYDARIDQLMVQRERFLSLQEGGSHHHHHH”, which “soluble on expression in E. coli” value is on record?
A: The value was “soluble”.

Q: For “MTISRRSLLEGLLGAAAGLALLPVLGGRAGAALPREAEVVVVGAGAAGIAAARRIVAAGRKVIVVEAASEIGGRCVTDTTSFAAPFDRGARWLHNPDSNPLVRLARSSGFAVTPVAPGQKVRIGRRNARSRETEDFLAAFVRASRAISDASRGKSDISCAAALPNDLGDWAATIEYVLGPATTSKDLRALSAMDAVRTLDRTALLGCPQGVGSLLTQLASSLPIALSTPVKRIVWSGRDLAVETTAGRIGARAIIVTASTNVLTSGNLGFSPELPKRQLDAAARLSLGSIDRIALQFKGNPLGLSRDETIIERADDIRTATLVGNIGGTSLCTVDVAGSFGRQLAAQGEAAMQDFAIEWLGKLFGSDIAGAVERKAVTRWNEMPYVLGAMSAAEPGGQPSRKVLGEPLGNLFFAGEATHETLFGTVQGAWESGERAADAALKKIGAVKEPAPEKPVRKQKPRREPQRQREQRPPATASGTPSWWRLEHHHHHH”, which “soluble on expression in E. coli” value is on record?
A: The value was “not soluble”.

Q: For “EVVVVGYGTQKKVNLTGAVSAVSAEDLASKPVMSTAQALAGLAPGLSVLQTSGRPGQGATVKIRGTGTFSKAGTDPLVLIDGLSGNIDDVDPNDIQSISFLKDAASASIYGNRAANGVILIETKKGA”, which “soluble on expression in E. coli” value is on record?
A: The value was “not soluble”.

Q: With “MAHHHHHHMLCHNVASKVSELLLNRMNCPFLQNVQVRNHKIIKPRNIIKLWKINKGDEVKVISGKDKGKIGEVLSCDKFRNMVKVKGCNLRKIYLDNKFVYIEKKIHYSNVQLIDDFLKTNTKVCIRYTDDNQVIRISKKSGIVIPWPSKTNKEDEFDDVEENPLDTPPQEALKKTYDYKADVKFMNILRQTVNKYNRELS” as the sequence, how does the “soluble on expression in E. coli” value read?
A: Its value is “not soluble”.

Q: With “SSAMGAGPDHLFNLRNNFYLGAYQTAINNSEIANLSPENAVERDCLVFRSYIALGSYQLVISEIDESAATPLQAVKLLAMYLSTPQNKESTISSLKEWLADSTIGNNDTLRLIAGIIFMHEEDYNETLKHTHAGGTMDLYALNVQIFIKMHRAEYAEKQLRVMQQIDEDHTLTQLASAWLNLAVGGSKIQEAYLIFEDFSEKYPMTCLILNGKAVCCMQMGNFDEAETLLLEALNKDAKDPETLANLVVCSLHVGKSSSRHLSQLKLSHPEHILVKRVSSAEDNFERAVQLVA” as the sequence, how does the “soluble on expression in E. coli” value read?
A: The value was “soluble”.

Q: Which “soluble on expression in E. coli” value does the source give for “MAQPKFVVAEIVEMEDHPDSDHLHICKVNVGFADPVQIVCGAPNAALGLKTVAALPGAMMPNGSLIFPGALRGVQSYGMLCSARELELPNAPEVRGIIELSSDLSAGKAFDSETMLEHHHHHH” here?
A: Its value is “not soluble”.

Q: With “SQDEVETEVIIKDIFKQGKICFIPQYQFQSNHMDMVRLTSPEEIALLPKTSWNIHQPGEGDVREEALSTGGLDLIFLPGLGFDKDGNRLGRGKGYYDTYLKRCVQHQEVKPYTMALAFKEQICPQIPVDEHDMKVDEVLYEDSPAS” as the sequence, how does the “soluble on expression in E. coli” value read?
A: The value was “not soluble”.

Q: For “MSLATQAVSLARVRGPLALAALTLLGACSTRTAVPTPAPVAGSPSVAPESPRPPEVASGYRTGMTTAYAEQHMAAAANPLAAEAGRRILRQGGSAIDAAIAMQAVLTLVEPQASGIGGGAFLLYWDGKRVQAYDGWETAPAGADENLFLRPDGTSMGLSEARIGGRAVGVPGVLRALELAHRRYGKLPWTRLLQPAVELAEQGFPVSPRLYTQIAADPFIAGSPEMAAYFLTPQGKPKPVGTIVRNPQLAQTLREIARHGPGAFYAGPIAADIVKRVSGGANPGTLSLADLRGYRAKERDPICADYQRWKVCGMPPPSSGGIAIAQMLGTLQALAARDPKYALAAMAPRETTRAAGLEPSVDAVHVVSEAGRQADADRGLYVADADFVPVNVKGLTDPGYLTLRAGLIGDRSTGRADPGTPPGTSIALAPDRSPPRVSTSQIVAVDNAGGAVSMTTAIDSDFGAHLMVRGFVLNSGLTDFSFVPNDGGKPVANRVQAGKRPRSSMAPTLVFERDSGRLVAALGSPGGSQSIEYVSKTLIGLLDWDMDVQSAINLPNFGSRNGPTEVERGLVTQPLVQGLKARGHDVAQIEMTSGTQAIVRRRRDDGRWGWAGGADPRREGVALGDEGHHHHHH”, which “soluble on expression in E. coli” value is on record?
A: Its value is “not soluble”.

Q: Which “soluble on expression in E. coli” value does the source give for “MGSDKIHHHHHHMNSIPHLILGDIITPTQAGQSLLIKKGYVLINGDSIIEVGEQAHFNKEISYTVSNYPDHLILPGLIDTHSHLSQYAICGAGDLPLMDWLNTLVFPAETAFSSNLQRCQRHAELYMHACLGSGTTTINTMVTSSRQATEIVCDVAARLGIRAFIGLVLMDRNAPDNLLVDCAQAFKDLTVLKDRYHGKNNIHITVSPRFAVTCSAAMLRQAGEFARANKLILHTHLDKDEGFDELIQSLFSTAHDYFDVFESTQCIADKTVFAHGTLLSLHEMKRMGDYAKQVGISHCPSSNFSFAMGMAPVSFFKGLGIEVGLGSDSGGGDSLSLFDEMRSASFTNKALWRLDKKTALIDAKTWLYHATLGGAKLLGLEKQIGSIEAGKKADLIILDDRNNYPLAELSSLSQELALDELQYRLARVIARSCENKLVAVYIDGKKVYQ” here?
A: Its value is “not soluble”.

Q: Which “soluble on expression in E. coli” value does the source give for “SMQVERESISRLMQNYEKINVNEITRFSDFPLSKKTLKGLQEAQYRLVTEIQKQTIGLALQGKDVLGAAKTGSGKTLAFLVPVLEALYRLQWTSTDGLGVLIISPTRELAYQTFEVLRKVGKNHDFSAGLIIGGKDLKHEAERINNINILVCTPGRLLQHMDETVSFHATDLQMLVLDEADRILDMGFADTMNAVIENLPKKRQTLLFSATQTKSVKDLARLSLKNPEYVWVHEKA” here?
A: The value was “soluble”.
